Measured values taken from article PMC5159498, “IQGAP1 Interaction with RHO Family Proteins Revisited” (The Journal of Biological Chemistry, 2016).

Columns and labels:
Conditions in all cases: both partners purified
[1] = target: T1, IQGAP1 GRD1-RGCT wild type (aa 877-1558) (human, UniProt P46940 877-1558); experiment: stopped-flow fluorometry; tGppNHp (tamra-GppNHp)-bound CDC42 or CDC42 Q61L (0.2 μM) rapidly mixed with IQGAP1 variant (2-10 μM GRD1-CT for Q61L); Kd = koff/kon; 30 mM Tris-HCl pH 7.5, 10 mM KH2PO4/K2HPO4, 5 mM MgCl2, 3 mM DTT
T1 construct: human IQGAP1, GRD and RGCT domains, lacks the last 99 amino acids, aa 877-1558; also called GRD1-RGCT^WT; IQGAP1^877-1558
T1 sequence (looked up): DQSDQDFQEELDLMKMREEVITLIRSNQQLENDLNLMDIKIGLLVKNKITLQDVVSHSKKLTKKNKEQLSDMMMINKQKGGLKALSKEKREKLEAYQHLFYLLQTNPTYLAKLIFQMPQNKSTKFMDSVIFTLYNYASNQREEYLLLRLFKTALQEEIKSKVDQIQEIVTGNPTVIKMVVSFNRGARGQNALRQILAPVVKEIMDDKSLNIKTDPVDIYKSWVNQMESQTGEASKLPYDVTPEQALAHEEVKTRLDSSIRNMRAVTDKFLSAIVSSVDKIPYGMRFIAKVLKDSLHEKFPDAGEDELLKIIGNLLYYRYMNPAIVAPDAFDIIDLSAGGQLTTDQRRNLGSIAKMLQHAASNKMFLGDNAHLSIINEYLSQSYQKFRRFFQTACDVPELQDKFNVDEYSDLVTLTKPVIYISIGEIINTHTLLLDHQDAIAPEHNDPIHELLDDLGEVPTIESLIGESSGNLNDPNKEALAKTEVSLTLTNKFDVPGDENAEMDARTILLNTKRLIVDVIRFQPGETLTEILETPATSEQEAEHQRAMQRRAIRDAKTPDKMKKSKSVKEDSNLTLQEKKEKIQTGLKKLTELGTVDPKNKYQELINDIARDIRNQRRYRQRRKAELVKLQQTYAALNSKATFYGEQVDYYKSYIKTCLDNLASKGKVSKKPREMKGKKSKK

[2] = target: T2, IQGAP1 GRD1-RGCT S1443E (aa 877-1558) (human, UniProt P46940 877-1558, S1443E); experiment: as above
T2 construct: human IQGAP1 aa 877-1558 with the phosphomimetic mutation S1443E (printed as S1143E in the methods, S1443E everywhere else), from the vector pET46 EkLIC; source: E. coli (pLysS BL21(DE3), CodonPlusRIL or BL21(Rosetta)), purified (Ni-NTA, gel filtration)
T2 sequence (looked up): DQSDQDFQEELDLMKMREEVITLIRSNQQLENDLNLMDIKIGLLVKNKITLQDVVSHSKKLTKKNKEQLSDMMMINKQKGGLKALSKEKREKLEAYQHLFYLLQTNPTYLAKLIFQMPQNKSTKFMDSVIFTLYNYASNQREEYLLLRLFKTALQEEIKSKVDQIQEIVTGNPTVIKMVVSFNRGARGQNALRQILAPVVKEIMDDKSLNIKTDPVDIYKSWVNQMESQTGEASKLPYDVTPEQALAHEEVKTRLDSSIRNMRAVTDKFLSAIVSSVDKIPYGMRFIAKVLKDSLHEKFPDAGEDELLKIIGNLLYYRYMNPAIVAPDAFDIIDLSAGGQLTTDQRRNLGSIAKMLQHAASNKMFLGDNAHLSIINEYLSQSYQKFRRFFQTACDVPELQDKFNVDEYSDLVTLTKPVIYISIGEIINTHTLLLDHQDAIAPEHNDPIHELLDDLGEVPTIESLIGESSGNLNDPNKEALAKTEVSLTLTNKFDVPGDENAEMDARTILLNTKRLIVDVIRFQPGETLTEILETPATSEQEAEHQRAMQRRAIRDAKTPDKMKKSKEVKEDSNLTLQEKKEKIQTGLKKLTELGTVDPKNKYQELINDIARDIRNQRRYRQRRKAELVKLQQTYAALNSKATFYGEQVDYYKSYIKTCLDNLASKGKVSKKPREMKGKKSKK

[3] = target: T2, IQGAP1 GRD1-RGCT S1443E (aa 877-1558); experiment: stopped-flow fluorometry; mGppNHp-bound RHO protein (0.2 μM) rapidly mixed with IQGAP1 variant (2 μM, or 2-12 μM for kon); koff by displacement with 10 μM non-fluorescent GppNHp-bound GTPase; Kd = koff/kon; 30 mM Tris-HCl pH 7.5, 10 mM KH2PO4/K2HPO4, 5 mM MgCl2, 3 mM DTT

Kd [1]: 1.45 µM | Kd [2]: 4.19 µM | Kd [3]: 7.03 µM
B1: CDC42 (aa 1-178) (domain or fragment)
chain: not shown
notes: human CDC42, C-terminally truncated, aa 1-178; Loaded non-covalently with mGppNHp, tGppNHp, mGDP or non-fluorescent GppNHp; the nucleotide is named in the format of each assay; also called CDC42^WT; CDC42-mGppNHp
